From US20200040103A1
Residue numbers refer to the chain shown, from its start.

B1: 9H3 (antibody, V domains shown)
VH: QSVKESEGGLFKPTDTLTLTCTVSGFSLSGYGVSWVRQAPGKGLEYIGFIGSGGSAYYASWAKSRSTITRNTNLNTVTLKMTRLTAADTATYFCARDNVGGDMSLDIWGPGTLVTVSS
VL: DIVMTQTPASVSEPVGGTVTIKCQASQNINNYLSWYQQKPGQPPKQLIYAASTLASGVPSRFKGSGSGTQFTLTISDLECADAATYYCHQDYTSNNVDNTFGGGTEVVVK
B2: 9B6 (antibody, V domains shown)
VH: B1 VH with T16N, G30N, S34T, K42N, R83S, N98D, D102G, M103K
VL: NIVMTQTPASVEVAVGGTVVIKCQASQNIGDYLSWYQQKPGQRPKLLIYSASTLASGVPSRFKGSGSGTQFTLTISDLECADAATYYCHQDYTSNDVENTFGGGTEVVVK
B3: 2B11 (antibody, V domains shown)
VH: QSVKESEGGLFKPTDTLTLTCTVSGFSLINYGVSWVRQAPGKGLEWIGYIGSAGSTYYATWAKSRATITRNTNLNTVTLKMTSLTAADTATYFCARAAYSAGSADAEDIWGPGTLVTVSS
VL: AYYMTQTPASVEAAVGGTVTIKCQASQSISNYVAWYQQKPGQPPKLLIYRASTLASGVSSRFSGSGSGTEFTLTISDLECADAATYYCHQGYSSSNVDNIFGGGTEVVVK
B4: 2-3F4 (antibody, V domains shown)
VH: QSVEESRGGLIKPTDTLTLTCTASGFSLSNYGVSWVRQAPGNGLEYIGFIGYGGSTYYASWAKSRSTITRNTNLNTVTLQMTSLTAADTATYFCARLCGVDCADALDSWGPGTLVTVSS
VL: AYYMTQTPASVEVAVGGTVTIKCQASEDIGSYCSWYQQKPGQPPKLLIYDASDLASGVPSRFKGSGSGTDFTLTISGVQCDDAATYYCQQDYTGNNVDNTFGGGSEVVVK
B5: 8F5 (antibody, V domains shown)
VH: QSVKESEGGLFKPTDTLTLTCTVSGFSLSSYPISWVRQAPGNGLEWIGYITSEYGVAYYATWAESRSTITRNTNLNTVTLKMTSLTAADTATYFCVRENPTYGYAYDAWGPGTLVTVSS
VL: AYDLTQTPASVEAAVGGTVTINCQASESIGNELSWYQQKSGQPPKLLIYQASTLASGVPSRFKGSGSGTDFTLTISDLECADAATYYCAQGFSSSGVENVFGGGTEVVVK
B6: 10C5 (antibody, V domains shown)
VH: QSLEESGGGLVKPTDTLTLTCTVSGFSLSSYGVTWVRQAPGRGLEWIGYITSNYGVSYYASWAKSRSTITRNTNLNTVTLKMTSLTAADTATYFCARENPDYGYAYDAWGPGTLVTVSV
VL: B5 VL with L4M, V11L, G30S, S40P, K45D, Q50Y, D70E, S93G
B7: hu9H5.L4H14 (antibody, V domains shown)
VH: EVQLVESGGGLIQPGGSLRLSCAASGFSLSSYGVSWVRQAPGKGLEYVGFIGSGGFAYYASWAKSRFTISRDNSKNTLYLQMNSLRAEDTAVYYCARDDVGGGKSLDIWGQGTLVTVSS
VL: DIQMTQSPSSLSASVGDRVTITCQASQSISSYLSWYQQKPGKAPKLLIYSASTLASGVPSRFSGSGSGTDFTLTISSLQPEDFATYYCHQDYTSSNVDNTFGGGTKVEIK
B8: hu10C5.L5H28 (antibody, V domains shown)
VH: EVQLVESGGGLVQPGGSLRLSCAASGFSLSSYGVTWVRQAPGKGLEWIGYITSNYGVSYYASWAKSRSTISRDTSKNTVYLQMGSLRAEDMAVYYCARENPDYGYAYDAWGQGTTVTVSS
VL: AIRMTQSPSSFSASTGDRVTITCQASESISNELSWYQQKPGKAPKLLIYYASTLASGVPSRFSGSGSGTDFTLTISSLQPEDFATYYCAQGFGSSGVENVFGGGTKVEIK
B9: hu3-3F5.L5H19 (antibody, V domains shown)
VH: EVQLLESGGGLVQPGGSLRLSCAVSGFSLNDYGVSWVRQAPGKGLEWVGAIGSSGVAWYANFAKGRFTISRDNSKNTLYLQMNSLRAEDTAVYYCARDRDYGYRADDATSGMDLWGRGTLVTVSS
VL: AIRMTQSPSSFSASTGDRVTITCQASESIGNALAWYQQKPGKAPKLLIYDASDLASGVPSRFSGSGSGTDFTLTISSLQPEDFATYYCQQGDSHNNVDNIFGGGTKVEIK
B10: hu3-3F5.L5H25 (antibody, human IgG1, V domains shown)
VH: B9 VH with V24A, N73T, L78V
VL: B9 VL
B11: 8G10 (antibody, V domains shown)
VH: QSLEESGGDLVKPEGSLTLTCTASGFSFSTSYWICWVRQAPGKGLEWIACVYGLDVNIYYASWTEGRFTISKTSSTTVTLQVTSLTAADTATYFCARGGGSADFGFDLWGPGTLVTVSS
VL: DVVMTQTPASVSEPVGGTVTIKCQASENIYSLLAWYQQKPGQPPKVLIYDASDLASGVPSRFKGSGSGTQFTLTISDLECADAATYYCQATAYGSSGNAFGGGTEVVVK

Each binder was assayed against recombinant human KLK5 (human) (UniProt Q9Y337) (assay: pro-KLK7 LC/MS assay, 5 nM KLK5).
Chain of recombinant human KLK5 (human) (Q9Y337 67-293): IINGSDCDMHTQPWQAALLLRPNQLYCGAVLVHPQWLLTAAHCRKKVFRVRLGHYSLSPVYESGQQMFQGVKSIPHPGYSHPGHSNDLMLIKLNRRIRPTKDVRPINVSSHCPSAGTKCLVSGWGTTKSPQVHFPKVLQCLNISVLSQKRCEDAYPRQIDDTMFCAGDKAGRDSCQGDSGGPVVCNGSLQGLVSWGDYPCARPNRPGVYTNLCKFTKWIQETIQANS

IC50 [nM]	Binder
1.05	B1
1.42	B2
1.72	B3
0.38	B4
1.31	B5
0.31	B6

These binders were tested against recombinant human KLK5 (human) (UniProt Q9Y337) (assay: pro-KLK7 coupled assay, 5 nM KLK5).

IC50 [nM]	Binder
1.05	B1
0.95	B2
0.86	B3
1.1	B4
0.76	B5
0.58	B6

Each binder was assayed against recombinant human KLK5 (human) (UniProt Q9Y337) (assay: pro-KLK1 LC/MS assay, 0.5 nM KLK5).

IC50 [nM]	Binder
0.09	B1
0.12	B2
0.48	B3
0.09	B4
0.16	B5
0.08	B6

Each binder was assayed against recombinant human KLK5 (human) (UniProt Q9Y337) (assay: Kiapp assay curve, 0.125 nM KLK5, Z-VPR-pNA).

IC50 (read off the curve) [nM]	Binder
0.07	B1
0.1	B2

The binders below were run against recombinant human KLK5 (human) (UniProt Q9Y337) (assay: Kiapp assay curve, 0.250 nM KLK5, Z-VPR-pNA).

IC50 (read off the curve) [nM]	Binder
0.1	B1
0.1	B2

The binders below were run against recombinant human KLK5 (human) (UniProt Q9Y337) (assay: Kiapp assay curve, 0.500 nM KLK5, Z-VPR-pNA).

IC50 (read off the curve) [nM]	Binder
0.2	B1
0.2	B2

These binders were tested against recombinant human KLK5 (human) (UniProt Q9Y337) (assay: Kiapp assay curve, 0.063 nM KLK5, Z-VPR-pNA).

IC50 (read off the curve) [nM]	Binder
0.05	B1
0.1	B2

What follows are binders tested against recombinant human KLK5 (human) (UniProt Q9Y337) (assay: pro-KLK1 coupled assay, 0.5 nM KLK5).

IC50 [nM]	Binder
0.12	B1
0.074	B2
0.17	B3
0.129	B4
0.149	B5
0.111	B6

The binders below were run against recombinant human KLK5 (human) (UniProt Q9Y337) (assay: Kiapp, KLK5 0.5-0.0625 nM, Z-VPR-pNA).

Ki [nM]	Binder
0.07	B1
0.185	B2
6.35	B3
1.14	B4
1.91	B5
0.15	B6

The binders below were run against recombinant human KLK5 (human) (UniProt Q9Y337) (assay: KLK5 direct activity assay, 5 nM KLK5, Boc-VPR-AMC).

IC50 (read off the curve) [nM]	Binder
0.9	B1
1 to 2	B2
1 to 2	B3
1	B4
1	B5
1	B6

Each binder was assayed against recombinant human KLK5 (human) (UniProt Q9Y337) (assay: direct activity assay, 5 nM KLK5, Boc-VPR-AMC).

IC50 [nM]	Binder
1.08	B1
1.17	B2
1.29	B3
1.02	B4
1.15	B5
0.98	B6

These binders were tested against recombinant human KLK5 (human) (UniProt Q9Y337) (assay: pro-KLK1 coupled assay, 0.5 nM KLK5, 31.25 nM pro-KLK1, PFR-AMC).

IC50 (read off the curve) [nM]	Binder
0.1	B1
0.2	B3
0.1	B4
0.1 to 0.2	B5
0.1	B6

What follows are binders tested against recombinant human KLK5 (human) (UniProt Q9Y337) (assay: pro-KLK7 coupled assay, 5 nM KLK5, 125 nM pro-KLK7, suc-LLVY-AMC).

IC50 (read off the curve) [nM]	Binder
1	B1
1	B2
1	B4
0.8	B5

Each binder was assayed against recombinant human KLK5 (human) (UniProt Q9Y337) (assay: SPR BIAcore T200, antibody captured by anti-human Fc, human KLK5 as analyte, 37 C).

Kd [nM]	koff [s⁻¹]	kon [M⁻¹ s⁻¹]	Binder
0.694	0.000562	810000	B7
0.057	0.00108	1.9e+07	B8
0.00414	0.000201	4.84e+07	B9
0.00914	0.000235	2.57e+07	B10
0.0165	0.000292	1.78e+07	B6

Each binder was assayed against recombinant human KLK5 (human) (UniProt Q9Y337) (assay: pro-KLK7 LC/MS assay, 5 nM KLK5, 15 nM pro-KLK7, nM).

IC50 [nM]	Binder
1.05	B1
1.42	B2
1.72	B3
0.384	B4
1.31	B5
0.311	B6

What follows are binders tested against recombinant human KLK5 (human) (UniProt Q9Y337) (assay: array SPR imaging (IBIS MX96), antibody amine-coupled, human KLK5 injected 0-300 nM, 25 C).

koff [s⁻¹]	Binder
0.000143	B1
0.000178	B2
0.000574	B3
0.000245	B11
0.000184	B4
0.000316	B5
0.000126	B6

These binders were tested against recombinant human KLK5 (human) (UniProt Q9Y337) (assay: Kiapp as the y-intercept of the line of IC50 (nM) versus KLK5 (nM), Z-VPR-pNA).

Ki [nM]	Binder
0.0697	B1
0.165	B2
6.36	B3
0.939	B4
1.85	B5
0.0412	B6

What follows are binders tested against recombinant human KLK5 (human) (UniProt Q9Y337) (assay: pro-KLK1 LC/MS assay, 0.5 nM KLK5, 300 nM pro-KLK1; box column 2 of 3; no unit printed, nM per text).

IC50 [nM]	Binder
0.0802	B1
0.202	B2
0.584	B3
0.173	B4
0.16	B5
0.123	B6

The binders below were run against recombinant human KLK5 (human) (UniProt Q9Y337) (assay: pro-KLK1 LC/MS assay, 0.5 nM KLK5, 300 nM pro-KLK1; box column 3 of 3; no unit printed, nM per text).

IC50 [nM]	Binder
0.104	B1
0.0879	B2
0.0279	B4
0.241	B5
0.0795	B6

What follows are binders tested against recombinant human KLK5 (human) (UniProt Q9Y337) (assay: pro-KLK1 LC/MS assay, 0.5 nM KLK5, 300 nM pro-KLK1; box column 1 of 3; no unit printed, nM per text).

IC50 [nM]	Binder
0.0728	B1
0.0659	B2
0.369	B3
0.054	B4
0.069	B5
0.0399	B6
